Experimental findings from patent US20020151471A1 (published 2002) are described below.

Broadly, the Kd is a measure of binding affinity in units of concentration.

Holding throughout (experiment): TF binding assay; method not stated in the example
Test [1] addresses T1, Factor VII preparation 2 (recombinant human FVII produced serum-free in CHO clone E11, Example 3) (human, UniProt P08709 61-466, N-linked oligosaccharide chains (Factor VII is normally glycosylated at Asn 145 and Asn 322); 94% of chains contain sialic acid, 13% contain fucosylated antenna).
T1 construct: The preparations differ only in glycoform pattern
T1 sequence (looked up): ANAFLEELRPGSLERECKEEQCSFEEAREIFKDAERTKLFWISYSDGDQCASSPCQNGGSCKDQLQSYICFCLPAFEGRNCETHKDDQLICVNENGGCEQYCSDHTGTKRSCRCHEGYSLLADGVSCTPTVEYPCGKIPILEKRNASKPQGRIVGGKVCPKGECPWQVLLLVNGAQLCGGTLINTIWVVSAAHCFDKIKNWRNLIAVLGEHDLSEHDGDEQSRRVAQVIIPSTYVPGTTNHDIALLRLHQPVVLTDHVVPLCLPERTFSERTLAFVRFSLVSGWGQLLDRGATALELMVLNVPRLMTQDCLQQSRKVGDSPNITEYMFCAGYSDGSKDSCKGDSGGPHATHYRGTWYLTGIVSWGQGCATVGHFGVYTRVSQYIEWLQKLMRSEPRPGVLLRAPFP

Test [2] deals with T2, Factor VII preparation 5 (recombinant human FVII produced serum-free in CHO clone E11, Example 3) (human, UniProt P08709 61-466, N-linked oligosaccharide chains (Factor VII is normally glycosylated at Asn 145 and Asn 322); 86% of chains contain sialic acid, 21% contain fucosylated antenna).
T2 construct: The preparations differ only in glycoform pattern
T2 sequence (looked up): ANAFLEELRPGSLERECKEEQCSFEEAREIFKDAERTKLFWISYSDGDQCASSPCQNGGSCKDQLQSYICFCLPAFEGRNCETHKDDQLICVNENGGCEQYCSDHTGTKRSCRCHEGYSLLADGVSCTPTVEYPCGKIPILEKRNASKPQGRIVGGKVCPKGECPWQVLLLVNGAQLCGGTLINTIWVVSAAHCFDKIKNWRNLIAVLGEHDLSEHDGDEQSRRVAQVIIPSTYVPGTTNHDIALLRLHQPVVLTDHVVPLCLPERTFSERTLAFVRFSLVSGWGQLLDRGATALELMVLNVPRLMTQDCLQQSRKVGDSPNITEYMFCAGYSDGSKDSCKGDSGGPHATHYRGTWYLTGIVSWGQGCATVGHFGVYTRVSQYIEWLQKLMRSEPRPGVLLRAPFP

In test [3] the target is T3, Factor VII preparation 1 (recombinant human FVII produced serum-free in CHO clone E11, Example 3) (human, UniProt P08709 61-466, N-linked oligosaccharide chains (Factor VII is normally glycosylated at Asn 145 and Asn 322); 98% of chains contain sialic acid, 6% contain fucosylated antenna).
T3 construct: The preparations differ only in glycoform pattern
T3 sequence (looked up): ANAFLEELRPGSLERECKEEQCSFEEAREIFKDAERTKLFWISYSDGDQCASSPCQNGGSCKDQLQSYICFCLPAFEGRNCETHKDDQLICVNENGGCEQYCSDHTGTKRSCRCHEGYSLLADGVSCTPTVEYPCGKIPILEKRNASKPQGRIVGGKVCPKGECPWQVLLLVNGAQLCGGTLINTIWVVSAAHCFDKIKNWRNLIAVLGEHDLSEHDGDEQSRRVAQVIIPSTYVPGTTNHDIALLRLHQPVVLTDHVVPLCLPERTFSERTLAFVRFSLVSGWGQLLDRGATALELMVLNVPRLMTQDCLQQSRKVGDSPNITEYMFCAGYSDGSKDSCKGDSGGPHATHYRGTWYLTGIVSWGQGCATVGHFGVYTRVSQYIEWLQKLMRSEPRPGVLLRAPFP

B1: tissue factor (TF) (receptor, UniProt P13726 33-251, looked up)
chain: SGTTNTVAAYNLTWKSTNFKTILEWEPKPVNQVYTVQISTKSGDWKSKCFYTTDTECDLTDEIVKDVKQTYLARVFSYPAGNVESTGSAGEPLYENSPEFTPYLETNLGQPTIQSFEQVGTKVNVTVEDERTLVRRNNTFLSLRDVFGKDLIYTLYYWKSSSSGKKTAKTNTNEFLIDVDKGENYCFSVQAVIPSRTVNRKSTDSPVECMGQEKGEFRE
With B1, the Kd stood at 2 nM in test [1], 2.8 nM in test [2] and 2.8 nM in test [3].
